Results: patent US20160137746A1, “METHODS FOR TREATING HIGH CARDIOVASCULAR RISK PATIENTS WITH HYPERCHOLESTEROLEMIA” (Sanofi Biotechnology, priority 2014, published 2016)

Legend:
[1] = test system: high cardiovascular risk patients with hypercholesterolemia; assay: ODYSSEY COMBO I: antibodies to alirocumab; type: in vivo, human
From the text: In seven of these patients, the antibodies were transient and resolved despite continued alirocumab treatment.

[2] = test system: high cardiovascular risk patients with hypercholesterolemia; assay: ODYSSEY LONG TERM: ophthalmologic sub-study; type: in vivo, human; conditions: including the ophthalmological sub-study
From the text: Patients underwent ophthalmologic assessments by ophthalmologists/optometrists at the screening period. If the patients were deemed eligible for the main study trial and fulfilled the additional eligibility criteria for the sub-study, then the patients underwent ophthalmologic assessments every 6 months during the 18-month double-blind treatment period
The primary endpoint was adverse events related to ophthalmologic abnormalities (using SMQ “optic nerve disorders”, “retinal disorders” and “corneal disorders”) over the study duration.

[3] = test system: high cardiovascular risk patients with hypercholesterolemia; assay: ODYSSEY COMBO II: safety (TEAEs, adjudicated CV events, laboratory parameters, low LDL-C)
Protocol: Safety assessments during both studies were as follows. Safety was assessed through adverse event (AE) reporting (including adjudicated cardiovascular events), laboratory analyses, and vital signs measurement. Since the LDL-C-lowering effects of PCSK9 inhibition on top of a statin are unknown, a number of AEs were defined as being of special interest and were monitored, including alanine aminotransferase abnormalities, allergic events, hemolytic anemia, pregnancy, overdose with study drug, neurologic events, ophthalmic events, and local injection site reactions.
Safety Analyses were as follows. AEs (including adjudicated cardiovascular events), laboratory parameters, and vital signs were reported descriptively, based on the safety population (all randomized patients who received at least 1 dose or partial dose of study treatment). The safety analysis focused on the treatment-emergent AE period defined as the time from the first double-blind dose to the last double-blind dose of the investigational product +70 days (10 weeks).
The safety population included all randomized patients who received at least one dose or part of a dose of the double-blind IMP.
Safety analyses were descriptive, performed on the safety population according to treatment actually received. For analysis of TEAE and PCSA, the safety analysis focused on the TEAE period defined as the time from the first dose of double-blind IMP administration (capsule or injection, whichever comes first) up to 70 days after the last double-blind injection.

[4] = alirocumab patients with two consecutive LDL-C ≦25 mg/dL (n = 105), number (%) of patients
[5] = safety population at 52 weeks, all patients, number (%) of patients
[6] = treatment period, safety population

Alirocumab: human anti-PCSK9 antibody; HCVR SEQ ID NO:1, LCVR SEQ ID NO:6; CDRs SEQ ID NOs 2/3/4/7/8/10
Effect of anti-alirocumab antibodies on safety and efficacy ([1]; in vivo): no observed effect on safety and efficacy
Median time to detection of antibodies to alirocumab ([1]; in vivo): 12 weeks
Antibodies to alirocumab detected at baseline ([1]; patients subsequently randomized to alirocumab (3/197)): 1.5%
Anti-alirocumab antibody titer ([1]; treatment-emergent positive patients): ≤ 240
TEAEs related to ophthalmological events [2]: no particular signal was detected
Laboratory parameters: Blood glucose increased [3, 4]: 1 (1.0)
Laboratory parameters: Hemoglobin decreased [3, 4]: 3 (2.9)
Patients experiencing any TEAE [3, 4]: 72 (68.6)
TEAE preferred term: Accidental overdose [3, 4]: 6 (5.7)
TEAE preferred term: Angina pectoris [3, 4]: 2 (1.9)
TEAE preferred term: Arthralgia [3, 4]: 5 (4.8)
TEAE preferred term: Dizziness [3, 4]: 5 (4.8)
TEAE preferred term: Headache [3, 4]: 4 (3.8)
TEAE preferred term: Hypertension [3, 4]: 3 (2.9)
TEAE preferred term: Influenza [3, 4]: 3 (2.9)
TEAE preferred term: Myalgia [3, 4]: 4 (3.8)
TEAE preferred term: Nasopharyngitis [3, 4]: 10 (9.5)
TEAE preferred term: Upper respiratory tract infection [3, 4]: 4 (3.8)
TEAE system organ class: Blood and lymphatic system disorders [3, 4]: 4 (3.8)
TEAE system organ class: Cardiac disorders [3, 4]: 14 (13.3)
TEAE system organ class: Eye disorders [3, 4]: 2 (1.9)
TEAE system organ class: Gastrointestinal disorders [3, 4]: 19 (18.1)
TEAE system organ class: General disorders and administration site conditions [3, 4]: 10 (9.5)
TEAE system organ class: Infections and infestations [3, 4]: 35 (33.3)
TEAE system organ class: Injury, poisoning, and procedural complications [3, 4]: 10 (9.5)
TEAE system organ class: Investigations [3, 4]: 7 (6.7)
TEAE system organ class: Metabolism and nutrition disorders [3, 4]: 6 (5.7)
TEAE system organ class: Musculoskeletal and connective tissue disorders [3, 4]: 19 (18.1)
TEAE system organ class: Neoplasms, benign, malignant and unspecified (including cysts and polyps) [3, 4]: 5 (4.8)
TEAE system organ class: Nervous system disorders [3, 4]: 17 (16.2)
TEAE system organ class: Psychiatric disorders [3, 4]: 2 (1.9)
TEAE system organ class: Renal and urinary disorders [3, 4]: 7 (6.7)
TEAE system organ class: Reproductive system and breast disorders [3, 4]: 4 (3.8)
TEAE system organ class: Respiratory, thoracic, and mediastinal disorders [3, 4]: 11 (10.5)
TEAE system organ class: Skin and subcutaneous tissue disorders [3, 4]: 10 (9.5)
TEAE system organ class: Vascular disorders [3, 4]: 4 (3.8)
Adjudicated cardiovascular events ([3]; in vivo): 4.8%
SOC gastrointestinal disorders ([3]; in vivo): 15.0%
SOC musculoskeletal and connective tissue disorders ([3]; in vivo): 19.6%
Safety in patients with two consecutive calculated LDL-C <25 mg/dL ([3]; in vivo): No particular safety concern
Treatment-emergent local injection site reactions ([3]; in vivo): 2.5%
Patients who experienced at least one TEAE ([3]; mean 58 weeks' follow-up): 71.2%
Serious adverse event ([3]; mean 58 weeks' follow-up): 18.8%
TEAE leading to death ([3]; mean 58 weeks' follow-up): 2 (0.4%) n (%)
TEAEs leading to treatment discontinuation ([3]; mean 58 weeks' follow-up): 7.5%
Tolerability ([3]; overall results): well-tolerated
Time to the first calculated LDL-C value <15 mg/dL, mean ([3]; safety population): 15.07 weeks
Time to the first calculated LDL-C value <15 mg/dL, median ([3]; safety population): 9.14 weeks
Time to the first calculated LDL-C value <25 mg/dL, mean ([3]; safety population): 12.56 weeks
Time to the first calculated LDL-C value <25 mg/dL, median ([3]; safety population): 5.14 weeks
Laboratory parameters: Blood glucose increased [3, 5]: 1 (0.2)
Laboratory parameters: Hemoglobin decreased [3, 5]: 4 (0.8)
Patients experiencing any TEAE [3, 5]: 341 (71.2)
TEAE preferred term: Accidental overdose [3, 5]: 30 (6.3)
TEAE preferred term: Angina pectoris [3, 5]: 12 (2.5)
TEAE preferred term: Arthralgia [3, 5]: 19 (4.0)
TEAE preferred term: Dizziness [3, 5]: 23 (4.8)
TEAE preferred term: Headache [3, 5]: 21 (4.4)
TEAE preferred term: Hypertension [3, 5]: 18 (3.8)
TEAE preferred term: Influenza [3, 5]: 17 (3.5)
TEAE preferred term: Myalgia [3, 5]: 21 (4.4)
TEAE preferred term: Nasopharyngitis [3, 5]: 18 (3.8)
TEAE system organ class: Blood and lymphatic system disorders [3, 5]: 11 (2.3)
TEAE system organ class: Cardiac disorders [3, 5]: 60 (12.5)
TEAE system organ class: Eye disorders [3, 5]: 23 (4.8)
TEAE system organ class: Gastrointestinal disorders [3, 5]: 72 (15.0)
TEAE system organ class: General disorders and administration site conditions [3, 5]: 56 (11.7)
TEAE system organ class: Injury, poisoning, and procedural complications [3, 5]: 61 (12.7)
TEAE system organ class: Investigations [3, 5]: 35 (7.3)
TEAE system organ class: Metabolism and nutrition disorders [3, 5]: 27 (5.6)
TEAE system organ class: Musculoskeletal and connective tissue disorders [3, 5]: 94 (19.6)
TEAE system organ class: Neoplasms, benign, malignant and unspecified (including cysts and polyps) [3, 5]: 15 (3.1)
TEAE system organ class: Nervous system disorders [3, 5]: 77 (16.1)
TEAE system organ class: Psychiatric disorders [3, 5]: 21 (4.4)
TEAE system organ class: Renal and urinary disorders [3, 5]: 21 (4.4)
TEAE system organ class: Reproductive system and breast disorders [3, 5]: 12 (2.7)
TEAE system organ class: Respiratory, thoracic, and mediastinal disorders [3, 5]: 45 (9.4)
TEAE system organ class: Skin and subcutaneous tissue disorders [3, 5]: 35 (7.3)
TEAE system organ class: Vascular disorders [3, 5]: 33 (6.9)
Patients with 2 consecutive calculated LDL-C value <15 mg/dL [3, 6]: (6.7%)
Patients with 2 consecutive calculated LDL-C value <25 mg/dL [3, 6]: (22.8%)
Patients with 2 consecutive calculated LDL-C value <25 mg/dL ([3]; treatment period, safety population, listed as alirocumab): 22.8%
